Test system: MS2 coat protein
Assay: apparent KD of MS2 coat protein, switch ON state; designed switch direction (-1 OFF switch, 1 ON switch): -1; higher = weaker reporter binding
Settings: FMN input: 0 or 200 uM; Eterna round: R93 (includes R88 designs)
Method in brief: (§1)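 Illumina sequencing clusters served as templates for on-chip transcription of the designed RNA switches. SNAP-549-labelled MS2 coat protein was then titrated in twofold steps from 0.7 or 1.5 nM to 3 µM, allowing 0.8–1.5 h per step at first and 10–20 min per step later. The buffer held 100 mM Tris-HCl pH 7.5, 80 mM KCl and 4 mM MgCl2, without or with constant ligand. Apparent KD is the median per design of normalised cluster binding-curve fits.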

Sequence	apparent KD of MS2 coat protein
AAAAAGUCAGGAUAUACGAACAUGUCAAAAGACGUGAAGGGACAUGAGGAUCACCCAUGUAGAAGGGACAAGAA [JL Stem Breaker 20]	85.2 nM
AUCAUGUUAGGAUAUACAAGAAAAGAAAAGAAAGAAAAGAAGUAGAAGGAACAUGAGGAUCACCCAUGUAAGAA [EteRNA is fun!]	23.6 nM
AAAAAGUUAGGAUAUACAUGAGGAUCACCCAUGUGCACGUAUGGAGAAUAUGGUGGUGGUAGAAGGGACAAAAA [EX2 Malc#19]	43.2 nM
GAAGAACAUGAGGAUCACCCAUGUGAGGAUAUACAGAAGGGAAUAAAAUAACCAGAAAGUAGAAGGCACAAGAA [Ex 1 May 40]	35.1 nM
AAAAUGUCAGGAUAUGCGAAGGCGUCUGAUAGAAGAGGAUAGCAGAAGGGACAUGAGGAUCACCCAUGUGGAAA [Opal 25]	72.3 nM
AUCAUGUUAGGAUAUUUAAGAAAAGAAAAGAAAGAAAAGAAAAAGAAGGAACAUGAGGAUCACCCAUGUAAGAA [EteRNA is fun!]	27.5 nM
AUAAAGCGAGGAUAUACAUGAGGAUCACCCAUGUAAAUAAAUAGGAGAGCCACAAUAAGUAGAAGGUGUAAUAA [JR_Exc003_Sub009]	62.6 nM
AAGAAACAUGAGGAUCACCCAUGUCAGGAUAUCGAAAAGAAAAGAAAAGAAAGAAGAACGAGAAGGGACAAAGG [Qakare Ibi]	59.6 nM
GAGGAACAUGAGGAUCACCCAUGUGAGGAUAUCGGAGGAGGAGGAGGAGGAGGAGGAGCGAGAAGGUACAAGAG [salish99-Ex1-03]	22.7 nM
GGUUGGCGAGGAUAUACAUGAGGAUCACCCAUGUGAGAGAAAAAAGUGAGAAAGAAUAGUAGAAGGCGCUGACG [salish99-ex3-40]	42.5 nM
CAGUACUGAGGAUAUACAUGAGGAUCACCCAUGUAUCCUAGCUAGGAAACUAGCAAAAGUAGAAGGCAGUACUG [Ex3: 819]	13.5 nM
AAAAAGUGAGGAUAUGCGCUGUCAAGUAGACACGAGCAGUCGUAGAAGGCACAUGAGGAUCACCCAUGUUUAAA [EX4 Malc#23]	28.5 nM
AAAAAACAUGAGGAUCACCCAUGUGAGGAUAUGCUAAAAAAAUCCGCAUAAAAAAAUAGCAGAAGGCACAUAAA [PK1]	25 nM
AGCUAGUCAGGAUAUACAAAAAUGCUAGAAGACGUAAGGGAACAUGAGGAUCACCCAUGUAGAAGGGACUAGCA [Diamond 45]	37.2 nM
AACGAGUCAGGAUAUGCUAUAAAUUAAUAAAUAAAAUUAUAGCAGAAGGGACAUGAGGAUCACCCAUGUAAAUA [JR_Exc004_Sub201]	45.7 nM
AACAGUACAGGAUAUACAUGAGGAUCACCCAUGUGAAAGAAAAGUGGCGUACCACAAAGUAGAAGGGUACUGAA [Mat - Exclusion 3 - JL mod - D28]	30.2 nM
GAAAACAGAGGAUAUACAUAAGCUAGACGAAAGUCUAGCAAACAUGAGGAUCACCCAUGUAGAAGGCUGAAGAA [Meechl Mod]	29.2 nM
UAGAACCUAGGAUAUACUUGGACCACUAAUUUACAGAUAUAACAUGAGGAUCACCCAUGUAGAAGGAGGAGUAA [JR_Exc002_Sub202]	36.8 nM
AAGAAGUGAGGAUAUCGAAGACUGUCGAAAAGACAGUCGAACGAGAAGGCACAUGAGGAUCACCCAUGUGAAAA [Marsurpial 65% 4]	22.1 nM
AGCAAGUUAGGAUAUGCAAAGUCAGGACACACACUGACGAAGCAGAAGGAACAUGAGGAUCACCCAUGUAAGCA [Mat - Exaclusion 4 - Eli mod - D63]	23.5 nM
AAAAAGUGAGGAUAUGUACGAAAAAAUAAAAAAAUAAAAGUACAGAAGGCACAUGAGGAUCACCCAUGUGAAAA [EX4 397: Minimal 10]	27.4 nM
AAGAAACAUGAGGAUCACCCAUGUGAGGAUAUGCAAAAGAAAAGAAAAGAAAGAAGAAGCAGAAGGCACAAAGG [Neferkahor]	49.1 nM
AAGUAACAUGAGGAUCACCCAUGUGAGGAUAUGAUUUAAGUUGUAAAAGUAAUAAAGGUCAGAAGGUAUGUGAA [Exclusion 1.2]	30.9 nM
GGAAAACAUGAGGAUCACCCAUGUCAGGAUAUACAAAGAAAGAAAGAAAAGAAAGAAAGUAGAAGGGACUAAAG [Amethyst 16]	20.4 nM
AGAAAUACAGGAUAUACAUGGGAAAAAAAAAAAAAAAUUCUACAUGAGGAUCACCCAUGUAGAAGGGUAUUUCA [Ex2 Design 170: Random 1]	48.2 nM

Test system: MS2 coat protein
Assay: apparent KD of MS2 coat protein, switch OFF state (with FMN for OFF switches, without FMN for ON switches); designed switch direction (-1 OFF switch, 1 ON switch): 1; higher = weaker reporter binding
Settings: FMN input: 0 or 200 uM; Eterna round: R93 (includes R88 designs)
Method in brief: as §1

Sequence	apparent KD of MS2 coat protein
AAUAUAUUAAGUGAGGAUAUCGAGGAAAAAACAUGAGGAUCACCCAUGUGGGAAACCUGGUCGGGUGAGAAGGCACUUAAUAUAU [Samwise Clockwise 26 - Jieux - Same State 2]	76.7 nM
GAUAAACAUGAGGAUCACCCAUGUAGAUAUAUGGGAGGAUAUACAUAGACGAUAGUCAUAGUAGAAGGCCUAAUAG [77%, Mat - Mod of Eli - With 6 more U's]	119 nM
AAGAAACAUGAGGAUCACCCAUGUGAUAAUAUGGGAGGAUAUACGAAGUCGAAAGUCGAAGUAGAAGGCCUAAGAA [Garnet 41]	186 nM
ACUUCACAUGAGGAUCACCCAUGUCAGGCCGGACUAGGAUAUUAUAAACCAGAGUAAAAAUAAGAAGGAGUAGGAA [JR_SS001_Sub311]	75.2 nM
UUACAGCACGGGUAGGAUAUGUAGGGUGGUACAUGAGGAUCACCCAUGUAUCCACCCUUCUAACGGCAGAAGGGCCUGUCGCUGC [Riarve]	15.4 nM
AAAAAACAUGAGGAUCACCCAUGUAAAAAAAAUGGAGGAUAUUGGAAAAAAAAAAAAAAACGAGAAGGCUAAAAAA [quick and simple]	50.4 nM
AACCAACAUGAGGAUCACCCAUGUAGAAAUAUGGGAGGAUAUACAAACACGAAAGUGAAAGUAGAAGGCCUAAAAG [77%, Mat - Mod of Eli, 6]	125 nM
AAAAUACAUGAGGAUCACCCAUGUGAAAAUAUGGAAGGAUAUCAAUGCAAAAAAAAGCAUUGAGAAGGUCCAAAAA [SS! 1 MT 8]	26.9 nM
AUAAAACAUGAGGAUCACCCAUGUAGACAUAUGGGAGGAUAUACUAGAUCGAAAGAUCUAGUAGAAGGCCUUUAUA [JL Mod of Eli 8]	54.2 nM
ACCAGGAAGAGAGAGGAUAUCCAAAGGAAAACAUGAGGAUCACCCAUGUAAAAGGUAGGAAAUUGGGAGAAGGCUCAAGAGAGAG [salish99-ss2-101]	30.1 nM
AAUAAACAUGAGGAUCACCCAUGUCGGUAAAGUCAAGGAUAUGGGACUGGGAUUAAAGUGCCAGAAGGUGAAAAUA [Raxela]	351 nM
GAAAAACAUGAGGAUCACCCAUGUAGAAAUAUGGGAGGAUAUACGAAGACGAAAGUCAAAGUAGAAGGCCUAAAGA [Mat - Same State 1 - Eli mod - D103]	70.4 nM
AAAAAAAAUGUGUAGGAUAUCAGUAAAAAUACAUGAGGAUCACCCAUGUUCAAAAAAAAAAAAACUGAGAAGGACACGGGAAGUCC [Design 2]	18.5 nM
AAACCACAUGAGGAUCACCCAUGUAAGAUAUACAUAGGAUAUGCGAAAAGAAACAAAGAAGCAGAAGGGUGAAAAA [75%, Ex sub1, 14]	72.8 nM
GAUAAACAUGAGGAUCACCCAUGUAGAAAUAUGGGAGGAUAUACAAAGACGAUAGUCAAAGUAGAAGGCCUAAAAG [77%, Mat - Mod of Eli - With 2 more U's]	85.9 nM
GGGAGGAAGAGAGAGGAUAUCCAAAGGAAAACAUGAGGAUCACCCAUGUAAAAGGUAGGAAAUUGGGAGAAGGCUCAAAAGACGG [salish99-ss2-047]	52.5 nM
AAAAGACAUGAGGAUCACCCAUGUAGGCCAAAGCAAGGAUAUAGGCCACAGGGACGUGGACUAGAAGGUGCACGGC [Xereedes]	107 nM
ACCCGACAUGAGGAUCACCCAUGUAAACAAUCAUGAGGAUAUCCGGAGCAAGUGCUCCAGGGAGAAGGCAUAAAAG [Reesbema]	122 nM

From the supplement of paper PMC9170038
